This is an account of results in patent US20050009745A1, “TSG101 as inhibitor of HIV production” (priority 2001, published 2005).

Series [1] has as its target GAL4 activation domain-Tsg101 fusion protein (wild-type human Tsg101) (yeast; human) (UniProt Q99816). As to the kind of experiment: cell-based or functional assay.
A short description of series [2]: Solubility of the peptide. The series is classed as physicochemical. To be noted: precluded testing at higher concentrations.
In series [3] the target is GAL4 DNA-binding domain-p1-p6 fusion protein (yeast; HIV-1) (UniProt P04386). The series is described as follows: cell-based or functional assay.
Another series deals with HIV-1 particles. As to the kind of experiment: Release of HIV-1 virus-like particles from transfected COS-1 cells, Western blot with anti-CA. It counts as cell-based. (In general: In western blotting, separated proteins are transferred to a membrane and probed.)
In the next series the test system is HIV-1 Gag. The series is classed as cell-based.

Where no end group is shown, it is not given here. Bounds are passed on as bounds.

Consider “GAL4 DNA-binding domain-p1-p6 with both PTAPP motifs deleted (from UniProt P04386 1-147; P03347 435-512)”, for which the β-galactosidase activity (yeast 2-hybrid) in series [1] was less than 0.3%.
In the case of “GAL4 DNA-binding domain-p1-p6 with the second PTAPP motif deleted (from UniProt P04386 1-147; P03347 435-512)”, the β-galactosidase activity (yeast 2-hybrid) (% of wild-type) in series [1] is 25.
On to ALQSRPEPTAPPEES, for which, in series [2], the “solubility of the peptide” value is reported as “limited solubility”.
Consider “GAL4 activation domain-Tsg101 with Ala for Thr67-Tyr68-Asn69 (from UniProt P04386 768-881)”, for which the 2-hybrid assay, percent of wild-type interaction (% of wild-type) in series [3] was 5.
For the molecule “GAL4 activation domain-Tsg101 Y110W (from UniProt P04386 768-881)”, in series [3], the 2-hybrid assay, percent of wild-type interaction (% of wild-type) amounted to 31.
As for `CC(C)CC[C@@H](O)[C@](C)(O)[C@H]1CC[C@@]2(O)C3=CC(=O)[C@@H]4C[C@@H](O)[C@@H](O)C[C@]4(C)[C@H]3CC[C@]12C` [pa, pronasterone, reference compound], in the series with HIV-1 particles, the “effect on virus particle release” value is reported as “no inhibitory effect”.
The molecule “GAL4 DNA-binding domain-p1-p6 with the first PTAPP motif deleted (from UniProt P04386 1-147; P03347 435-512)” came in with a β-galactosidase activity (yeast 2-hybrid) (% of wild-type) in series [1] of 50.
In the case of “GAL4 DNA-binding domain-p1-p6 with the (LXX)4 repeat motif deleted (from UniProt P04386 1-147; P03347 435-512)”, in series [1], the β-galactosidase activity (yeast 2-hybrid) (% of wild-type) turned out to be 55.
On to “GAL4 activation domain-Tsg101 Y113V (from UniProt P04386 768-881)”, for which the 2-hybrid assay, percent of wild-type interaction (% of wild-type) in series [3] was 33.
In series [1], “GAL4 DNA-binding domain-p1-p6 with the first PTAPP motif deleted and Ala for Pro7 in the second motif (from UniProt P04386 1-147; P03347 435-512)” yielded an enzyme activity (β-galactosidase, yeast 2-hybrid) (% of wild-type) of 25.

B1: SD5-59 (protein)
chain: MAVSESQLKKMVSKYKYRDLTVRETVNVITLYKDLKPVLDSYVFNDGSSRELMNLTGTIPVPYRGNTYNIPICLWLLDTYPYNPPICFVKPTSSMTIKTGKHVDANGKIYLPYLHEWKHPQSDLLGLIQVMIVVFGDEPPVFSRPISASYPPYQATGPPNTSYMPGMPGGISPYPSGYPPNPSGYPGCPYPPGGPYPATTSSQYPSQPPVTTVGPSRDGTISEDTIRASLISAVSDKLRWRMKEEMDRAQAELNALKRTEEDLKKGHQKLEEMVTRLDQEVAEVDKNIELLKKKDEELSSALEKMENQSENNDIDEVIIPTAPLYKQILNLYAEENAIEDTIFYLGEGGVIDLDVFLKHVRLLSRKQFQLRALMQKARKTAGLSDLY
modifications: left off: small tags and cut ends
For B1, in the series with HIV-1 particles (COS cells, wild-type gag, 1 and 5 μM pa), the “Gag processing in released particles” value is “accumulation of particle-associated uncleaved Gag precursor”. Moreover, the “release of virus particles” value with HIV-1 particles (COS cells, wild-type gag, increasing expression with 1 and 5 μM pa) was “permitted release of virus particles”. Also, in the series with HIV-1 Gag, the “viral protein in P1 fraction” value is listed as “no protein was found” and the “viral protein in S1 fraction” value is “detectable levels of viral protein”.

B2: pIND-h-Tsg101-FLAG: wild-type human Tsg101, FLAG-tagged, inducibly over-expressed from plasmid (protein)
chain: MAVSESQLKKMVSKYKYRDLTVRETVNVITLYKDLKPVLDSYVFNDGSSRELMNLTGTIPVPYRGNTYNIPICLWLLDTYPYNPPICFVKPTSSMTIKTGKHVDANGKIYLPYLHEWKHPQSDLLGLIQVMIVVFGDEPPVFSRPISASYPPYQATGPPNTSYMPGMPGGISPYPSGYPPNPSGYPGCPYPPGGPYPATTSSQYPSQPPVTTVGPSRDGTISEDTIRASLISAVSDKLRWRMKEEMDRAQAELNALKRTEEDLKKGHQKLEEMVTRLDQEVAEVDKNIELLKKKDEELSSALEKMENQSENNDIDEVIIPTAPLYKQILNLYAEENAIEDTIFYLGEALRRGVIDLDVFLKHVRLLSRKQFQLRALMQKARKTAGLSDLY
modifications: left off: small tags and cut ends
notes: wild-type human Tsg101, FLAG-tagged, inducibly over-expressed from plasmid
As to B2, the “release of immature particles containing GagΔp6” value in the series on HIV-1 particles (COS-1 cells, gagΔp6, Tsg101 overexpression, 0, 1, 5 μM pa) was “not significantly affected”. In the series on HIV-1 particles (COS-1 cells, wild-type gag, 1 μM pa inducer), the “amount of mature CA in released virus, of the control (0 μM pa) level” value was approximately 60%. The “amount of mature CA in released virus, of the control (0 μM pa) level” value in the series on HIV-1 particles (COS-1 cells, wild-type gag, 5 μM pa inducer) is approximately 30%. In the series with HIV-1 Gag, the “viral protein in P1 fraction” value is listed as “no detectable viral protein” and the “viral protein in S1 fraction” value is recorded as “no detectable viral protein”.
